According to paper PMC2886031:
Like-named read-outs stand apart in the source and are kept apart here.

Legend:
[1] = molecular target: T1, PacI (R.PacI) restriction endonuclease (Pseudomonas alcaligenes, UniProt D5MNX7 1-142); test: X-ray crystallography
T1 sequence: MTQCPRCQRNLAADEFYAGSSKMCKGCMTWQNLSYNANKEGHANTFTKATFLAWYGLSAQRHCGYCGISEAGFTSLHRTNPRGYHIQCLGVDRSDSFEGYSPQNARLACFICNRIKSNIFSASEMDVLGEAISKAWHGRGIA

[2] = molecular target: T1, PacI (R.PacI) restriction endonuclease; test: X-ray crystallography; remark: listed apart in the source

B1: 18 bp PacI cognate duplex (uncleaved) (dsDNA)
DNA 1: GAGGCTTAATTAAGCCGC
DNA 2: GCGGCTTAATTAAGCCTC
- binding result [1]: binds

B2: 18 bp PacI cognate duplex, cleaved product (dsDNA)
DNA 1: GAGGCTTAAT
DNA 2: TAAGCCGC
DNA 3: GCGGCTTAAT
DNA 4: TAAGCCTC
modifications: 5' phosphate at the cleaved ends
- binding result [2]: binds
